These are literature values, as cited in publication PMC4488278.

The data set addresses EGFR (Homo sapiens) (UniProt P00533).

What is called Kd is a measure of binding affinity in units of concentration. With EGF (from UniProt P01133), the Kd is 1 nM.
